Reference: patent publication CN114891104A (YOURUI SAISI WUHAN BIOTECHNOLOGY CO LTD, dated 2022)

Target: T1, 重组人proAMH蛋白 (recombinant human proAMH protein) (human, UniProt P03971 25-560)
T1 construct: Expressed in Expi293 cells and purified on Ni-IMAC; nothing is said about the recombinant protein itself; also called His-tag重组人proAMH蛋白; 人proAMH标准品蛋白; not shown: His-tag; neither its length nor its terminus is stated
T1 sequence (looked up): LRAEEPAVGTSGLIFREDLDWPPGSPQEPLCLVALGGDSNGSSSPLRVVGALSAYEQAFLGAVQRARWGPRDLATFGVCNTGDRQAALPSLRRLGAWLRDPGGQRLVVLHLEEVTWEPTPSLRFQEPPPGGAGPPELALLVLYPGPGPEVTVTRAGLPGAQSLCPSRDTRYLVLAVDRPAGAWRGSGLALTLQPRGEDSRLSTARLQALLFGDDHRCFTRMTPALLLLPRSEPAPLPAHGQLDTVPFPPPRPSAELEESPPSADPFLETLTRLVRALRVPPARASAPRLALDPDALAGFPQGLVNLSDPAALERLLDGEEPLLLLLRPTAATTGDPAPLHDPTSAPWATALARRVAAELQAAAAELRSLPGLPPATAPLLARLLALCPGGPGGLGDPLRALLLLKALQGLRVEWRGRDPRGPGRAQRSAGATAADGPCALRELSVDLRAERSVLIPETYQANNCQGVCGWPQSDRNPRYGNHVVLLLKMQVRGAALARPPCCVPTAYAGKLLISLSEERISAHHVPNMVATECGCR
Assay: SPR, Biacore 3000; antibody immobilised on CM5 chip, proAMH at 100-3 nM as analyte

B1: 单克隆抗体A (抗人proAMH蛋白兔单克隆抗体A) (antibody, V domains shown)
VH: QSVKESEGGLFKPTDTLTLTCTVSAFSISTYGVSWVRQAPGNGLEYIGWIAATGKVFYASWAKSRSTITRNTYENTVTLKMTSLTVADTATYFCAHVIWATQTFDFWGPGTLVTVSS
VL: DVVMTQTPASVSDPVGGTVTIKCQASQTITNFLSWFQQKPGQPPKLLIYNTMTLASGVPSRFKGSGSGTEYTLTISGVECADAATYYCQEGDNWDEVDAVFGGGTEVVVKG
notes: Recombinant rabbit monoclonal antibody made in 293F cells; kappa light chain, heavy constant region called IgG1 type; Copies '2' follows from the IgG format; also called monoclonal antibody A
Kd: 6.02 nM | koff: 0.000117 s⁻¹ | kon: 19500 M⁻¹ s⁻¹
